Here are results for ten molecules from article PMC8904830, “Differential recognition of canonical NF-κB dimers by Importin α3” (Nature Communications, 2022).

Sequences and labels used below:
B1: NF-κB p50 (residues 1-366) (domain or fragment, human, UniProt P19838 1-366, looked up)
chain: MAEDDPYLGRPEQMFHLDPSLTHTIFNPEVFQPQMALPTDGPYLQILEQPKQRGFRFRYVCEGPSHGGLPGASSEKNKKSYPQVKICNYVGPAKVIVQLVTNGKNIHLHAHSLVGKHCEDGICTVTAGPKDMVVGFANLGILHVTKKKVFETLEARMTEACIRGYNPGLLVHPDLAYLQAEGGGDRQLGDREKELIRQAALQQTKEMDLSVVRLMFTAFLPDSTGSFTRRLEPVVSDAIYDSKAPNASNLKIVRMDRTAGCVTGGEEIYLLCDKVQKDDIQIRFYEEEENGGVWEGFGDFSPTDVHRQFAIVFKTPKYKDINITKPASVFVQLRRKSDLETSEPKPFLYYPEIKDKEEVQRKRQKL
notes: NF-κB p50, human, residues 1-366 (Rel homology region with the C-terminal NLS); also called p50 RHR; source: E. coli BL21 DE3, purified (Glutathione Resin, PreScission cleavage, Superdex 200)
B2: ΔNLS-p50 (residues 41-351) (domain or fragment, human, UniProt P19838 41-351, looked up)
chain: GPYLQILEQPKQRGFRFRYVCEGPSHGGLPGASSEKNKKSYPQVKICNYVGPAKVIVQLVTNGKNIHLHAHSLVGKHCEDGICTVTAGPKDMVVGFANLGILHVTKKKVFETLEARMTEACIRGYNPGLLVHPDLAYLQAEGGGDRQLGDREKELIRQAALQQTKEMDLSVVRLMFTAFLPDSTGSFTRRLEPVVSDAIYDSKAPNASNLKIVRMDRTAGCVTGGEEIYLLCDKVQKDDIQIRFYEEEENGGVWEGFGDFSPTDVHRQFAIVFKTPKYKDINITKPASVFVQLRRKSDLETSEPKPFLYYP
notes: NF-κB p50, human, residues 41-351, lacking the C-terminal NLS, untagged; also called p50-ΔNLS; source: E. coli BL21 DE3, purified (polyethyleneimine and ammonium sulfate precipitation, HiTrap SP, Superdex 200)
B3: ΔNLS-p65 (residues 1-290) (domain or fragment, human, UniProt Q04206 1-290, looked up)
chain: MDELFPLIFPAEPAQASGPYVEIIEQPKQRGMRFRYKCEGRSAGSIPGERSTDTTKTHPTIKINGYTGPGTVRISLVTKDPPHRPHPHELVGKDCRDGFYEAELCPDRCIHSFQNLGIQCVKKRDLEQAISQRIQTNNNPFQVPIEEQRGDYDLNAVRLCFQVTVRDPSGRPLRLPPVLSHPIFDNRAPNTAELKICRVNRNSGSCLGGDEIFLLCDKVQKEDIEVYFTGPGWEARGSFSQADVHRQVAIVFRTPPYADPSLQAPVRVSMQLRRPSDRELSEPMEFQYLP
notes: NF-κB p65 (RelA), human, residues 1-290 (stop codon at position D291), lacking the C-terminal NLS, untagged; source: E. coli BL21 DE3, purified (polyethyleneimine and ammonium sulfate precipitation, HiTrap SP, Superdex 200)
B4: IκBα (residues 67-287) (domain or fragment, UniProt P25963 67-287, looked up)
chain: KQQLTEDGDSFLHLAIIHEEKALTMEVIRQVKGDLAFLNFQNNLQQTPLHLAVITNQPEIAEALLGAGCDPELRDFRGNTPLHLACEQGCLASVGVLTQSCTTPHLHSILKATNYNGHTCLHLASIHGYLGIVELLVSLGADVNAQEPCNGRTALHLAVDLQNPDLVSLLLKCGADVNRVTYQGYSPYQLTWGRPSTRIQQQLGQLTLENLQMLPESEDEE
notes: IκBα, residues 67-287, untagged; source: recombinant, expressed and purified as previously described (pET-11a)
B5: ΔDBD-p65 (residues 191-316) (domain or fragment, human, UniProt Q04206 191-316, looked up)
chain: TAELKICRVNRNSGSCLGGDEIFLLCDKVQKEDIEVYFTGPGWEARGSFSQADVHRQVAIVFRTPPYADPSLQAPVRVSMQLRRPSDRELSEPMEFQYLPDTDDRHRIEEKRKRTYETFKSIMKKS
notes: also called p65 dimerization domain; source: E. coli BL21 DE3, purified (Glutathione Resin, PreScission cleavage, Superdex 200)
B6: NF-κB p65 (residues 1-306) (domain or fragment, human, UniProt Q04206 1-306, looked up)
chain: MDELFPLIFPAEPAQASGPYVEIIEQPKQRGMRFRYKCEGRSAGSIPGERSTDTTKTHPTIKINGYTGPGTVRISLVTKDPPHRPHPHELVGKDCRDGFYEAELCPDRCIHSFQNLGIQCVKKRDLEQAISQRIQTNNNPFQVPIEEQRGDYDLNAVRLCFQVTVRDPSGRPLRLPPVLSHPIFDNRAPNTAELKICRVNRNSGSCLGGDEIFLLCDKVQKEDIEVYFTGPGWEARGSFSQADVHRQVAIVFRTPPYADPSLQAPVRVSMQLRRPSDRELSEPMEFQYLPDTDDRHRIEEKRKRTY
notes: NF-κB p65 (RelA), human, residues 1-306 (Rel homology region with the C-terminal NLS), untagged; also called RelA; p65 RHR; source: E. coli BL21 DE3, purified (polyethyleneimine and ammonium sulfate precipitation, HiTrap SP, Superdex 200)
B7: ΔDBD-p50 (residues 243-366) (domain or fragment, human, UniProt P19838 243-366, looked up)
chain: KAPNASNLKIVRMDRTAGCVTGGEEIYLLCDKVQKDDIQIRFYEEEENGGVWEGFGDFSPTDVHRQFAIVFKTPKYKDINITKPASVFVQLRRKSDLETSEPKPFLYYPEIKDKEEVQRKRQKL
notes: also called p50 dimerization domain; source: E. coli BL21 DE3, purified (Glutathione Resin, PreScission cleavage, Superdex 200)

For series [1], the target named is ΔIBB-importin α3 (tag not told for these experiments) (human) (UniProt O00629). Briefly: native gel or EMSA; increasing molar excess of pre-assembled p50/p65 added to a fixed 10 μg (~108 pmoles) of ΔIBB-importin α1 or α3; 1.5% agarose gel, 4 °C, 2 h at 50 V, Coomassie. On the technique in general: In EMSA bound probe runs differently from free probe, usually more slowly.
ΔIBB-importin α3 (tag not told for these experiments) (human), sequence (O00629 68-487, stated change not applied): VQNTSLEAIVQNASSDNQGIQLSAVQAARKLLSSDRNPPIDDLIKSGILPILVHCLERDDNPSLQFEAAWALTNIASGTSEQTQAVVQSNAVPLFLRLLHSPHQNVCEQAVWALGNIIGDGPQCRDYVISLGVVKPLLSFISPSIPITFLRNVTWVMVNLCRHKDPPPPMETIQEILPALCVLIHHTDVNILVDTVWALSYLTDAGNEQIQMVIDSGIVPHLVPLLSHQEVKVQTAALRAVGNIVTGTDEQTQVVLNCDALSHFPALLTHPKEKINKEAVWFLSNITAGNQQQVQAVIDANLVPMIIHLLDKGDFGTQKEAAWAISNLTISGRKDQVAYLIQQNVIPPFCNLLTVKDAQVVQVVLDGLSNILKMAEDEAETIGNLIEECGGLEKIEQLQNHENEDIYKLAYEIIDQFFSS

Series [2] has as its target ΔIBB-importin α1 (tag not told for this experiment) (human) (UniProt P52292). Described as above.
Series [3] has as its target NF-κB p50/p50 homodimer (human) (UniProt P19838). Briefly: ELISA; NF-κB hetero/homodimers (200 ng) coated on MaxiSorp plates; His-importin α 1000 to 0 nM in PBST, room temperature 1 h; anti-6xHis-HRP; one-site specific binding fit. (In general: In an ELISA, binding on a coated surface is turned into a signal by an enzyme label.)
Series [4] addresses NF-κB p65/p65 homodimer (human) (UniProt Q04206). Described as above.
Series [5] concerns the target T1, NF-κB p50/p65 heterodimer (human, UniProt P19838 1-366; Q04206 1-306).
T1 construct: NF-κB p50, human, residues 1-366; NF-κB p65 (RelA), human, residues 1-306, untagged; also called wild-type NF-κB; source: subunits from E. coli BL21 DE3, purified; assembled by incubating p50:p65 at 1:1.5 molar ratio; copies: 1 + 1
The description is as above.

In series [6] the target is p50/ΔNLS-p65 heterodimer (human) (UniProt P19838). The series is described as above.
The target in series [7] is ΔDBD-p50/p65 heterodimer (human) (UniProt P19838). Briefly: SEC; trimeric complex assembled from purified ΔIBB-importin α3 and ΔDBD-p50/p65; peak fraction analysed by SDS-PAGE and native agarose gel. (In general: SEC sorts molecules by how far they enter the pores of the column.)
Series [8] addresses NF-κB p50/p50 homodimer (human) (UniProt P19838). In words: SEC-SAXS; pre-assembled NF-κB dimer:ΔIBB-importin α3 complexes at 4.5-6.6 mg/ml on Superdex 200 10/300 GL; 20 mM Tris-HCl pH 7.0-7.5, 0.15-0.175 M NaCl, glycerol, 0.5 mM TCEP, 4 °C; mass from volume of correlation.
Series [9] deals with NF-κB p65/p65 homodimer (human) (UniProt Q04206). The description is as above.
For series [10], the target named is T1, NF-κB p50/p65 heterodimer. The description is as above.
Series [11] concerns the molecule itself. Briefly: SEC; homodimeric NF-κB complexes concentrated and injected on Superdex 200 16/60 in 20 mM Tris-HCl pH 7.5, 150 mM NaCl, 5 mM β-mercaptoethanol, 2% glycerol.
For series [12], the target named is B2. In words: assembly of heterodimers by co-incubation; purified p50 and p65 constructs incubated at 1:1.5 p50:p65 molar ratio, 25 °C 30 min, 37 °C 1 h, centrifuged at 12,000 x g. As to conditions: both partners purified.
The target of series [13] is B1. The series is described as above. The settings on record: both partners purified.
In series [14] the target is T1, NF-κB p50/p65 heterodimer. Briefly: native gel or EMSA; purified IκBα titrated against ~130 pmoles of pre-formed p50/p65 (Fig. 4a lanes 5-10); 1 h at 4 °C; 1.5% agarose gel. The settings on record: both partners purified.
Series [15] concerns the target B6. Briefly: assembly of heterodimers by co-incubation; purified p50 and p65 constructs incubated at 1:1.5 p50:p65 molar ratio, 25 °C 30 min, 37 °C 1 h, centrifuged at 12,000 x g. As to conditions: both partners purified.

The term stoichiometry N denotes a count of units in the complex or per binding partner. As for “NF-κB p50/p65 heterodimer (from UniProt P19838 1-366; Q04206 1-306) (complex)”, the stoichiometry N in [1] and in series [2] was 1 in each case.

As a reminder, the Kd is the free concentration of one partner at which half of the binding sites on the other are occupied at equilibrium, for simple one-to-one binding. A low value points to tighter binding. Consider “His-ΔIBB-importin α3 (from UniProt O00629 68-487) (domain or fragment)”, for which the Kd in series [3] was 15.4 nM; in [4], 35.2 nM; in [5], 45.8 nM; in series [6] it was 59.6 nM.

“ΔIBB-importin α3 (tag not told for these experiments) (from UniProt O00629 68-487) (domain or fragment)”: the stoichiometry N is 1 in series [7], 2 in series [8], 1 in series [9] and 1 in series [10].

For the molecule B1, the binding result in series [11] is recorded as “binds”.

With B2, in series [11], the binding result was “binds”.

Take B3: the binding result in series [11], in [12] and in series [13] was “binds” throughout.

Take B4: the “stoichiometry N” value in series [14] was found to be 1.

Consider B5, for which the binding result in series [11] is “binds”.

Take B6: the binding result in [11], in series [12] and in series [13] was “binds” in each case.

As for B7, the binding result in [11] and in series [15] was “binds” in each case.
